B1: Membrane-associated guanylate kinase, WW and PDZ domain-containing protein 2, residues 601 to 682; numbered along this chain, Q86UL8 (parent)
chain: AELMTLTIVKGAQGFGFTIADSPTGQRVKQILDIQGCPGLCEGDLIVEINQQNVQNLSHTEVVDILKDCPIGSETSLIIHRG

Variants of: B1
Assay: abundance fitness (aPCA) (normalised: wild type 0, dead -1); higher = more abundant; growth selection in yeast, the domain comes from the species named
Details: Homo sapiens

Abundance fitness: each site, then its substitutions
G11: C -0.146 | S -0.023 | K -0.09 | W -0.223 | P 0.03 | F -0.114 | M -0.095 | Q -0.119 | Y -0.124 | E -0.118 | H -0.142 | V 0.027 | D 0.01 | N 0.017 | L -0.104 | I -0.116 | T -0.015 | A 0.018 | R -0.094
F15: M 0.039 | V -0.003 | K -0.322 | C -0.111 | A -0.179 | L 0.004 | W -0.002 | E -0.141 | P -0.063 | N -0.144 | Q -0.062 | Y -0.048 | D -0.118 | S -0.143 | G -0.221 | R -0.266
T7: M -0.083 | S -0.103 | L -0.075 | Y -0.121 | Q -0.085 | N 0.044 | K 0.002 | R -0.052 | I -0.013 | P -0.04 | A -0.008 | C -0.027 | V -0.126 | F -0.017 | E -0.133 | G -0.168
I8: Q -0.08 | R -0.397 | A -0.021 | L 0.036 | P -0.09 | E -0.52 | T 0.042 | V -0.002 | G -0.084 | Y -0.012 | K -0.261 | M -0.053 | N -0.282 | F 0.046 | C -0.008 | S -0.059 | H -0.113 | W -0.063 | D -1.07
A12: Y -0.119 | D -0.02 | G 0.01 | C -0.044 | F -0.075 | S -0.046 | L -0.05 | M -0.034 | Q -0.037 | I -0.137 | W -0.057 | P -0.043 | N -0.077 | H -0.209 | R -0.029 | E -0.047 | K -0.036
G14: I -0.168 | R -0.093 | Y -0.071 | A -0.152 | N 0.025 | M -0.089 | C -0.11 | Q -0.052 | T -0.02 | L -0.105 | F -0.21 | D 0.07 | E -0.016 | H -0.03
M4: I -0.061 | R -0.157 | H -0.026 | V -0.039 | N -0.063 | F 0.058 | G -0.118 | D -0.013 | Q -0.092 | T -0.014 | C -0.136 | P -0.081 | S -0.097 | W -0.102 | K -0.002 | A -0.1 | L -0.078 | E -0.106 | Y -0.022
K10: A -0.108 | H -0.14 | E -0.662 | R -0.107 | T -0.182 | I -0.185 | W -0.446 | G -0.125 | S -0.143 | C -0.192 | V -0.073 | P -0.146 | L -0.239 | F -0.372 | M -0.102 | Q -0.123 | D -1.29
L3: F 0.016 | M 0.029 | Q 0.014 | V -0.032 | P -0.2 | S -0.028 | E 0.038 | G -0.018 | D -0.024 | K 0.042 | A -0.03 | W -0.162 | I 0.014 | C -0.095 | N 0.056 | H 0.035 | T 0.015
E2: N 0.009 | W -0.214 | Y -0.094 | H -0.113 | V -0.077 | L -0.131 | A -0.032 | C -0.039 | R -0.098 | G -0.049 | P -0.205 | T -0.034 | I -0.139

— the Human Domainome abundance scans (Beltran et al. 2025)
